One molecule from patent US20030083469, “Allosteric control of nuclear hormone receptors” (The Salk Institute for Biological Studies, published 2003) can be followed below.

This series addresses GAL4 DBD-RXRalpha LBD (Saccharomyces cerevisiae / Homo sapiens, UniProt P04386;P19793 P04386:1-147,P19793:203-462). The series can be described thus: cell_activity; fold response to 100 nM LG69; 4 copies UASG TK-LUC, CV-1 cells. Conditions: tags: GAL4 DBD (1-147) N-terminal fusion.

Chain of GAL4 DBD-RXRalpha LBD (P04386 1-147, chain 1 of 2): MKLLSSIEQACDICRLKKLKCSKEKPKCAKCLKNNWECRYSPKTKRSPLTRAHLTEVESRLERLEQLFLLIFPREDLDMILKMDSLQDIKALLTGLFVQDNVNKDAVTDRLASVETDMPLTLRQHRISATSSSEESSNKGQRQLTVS
Chain of GAL4 DBD-RXRalpha LBD (P19793 203-462, chain 2 of 2): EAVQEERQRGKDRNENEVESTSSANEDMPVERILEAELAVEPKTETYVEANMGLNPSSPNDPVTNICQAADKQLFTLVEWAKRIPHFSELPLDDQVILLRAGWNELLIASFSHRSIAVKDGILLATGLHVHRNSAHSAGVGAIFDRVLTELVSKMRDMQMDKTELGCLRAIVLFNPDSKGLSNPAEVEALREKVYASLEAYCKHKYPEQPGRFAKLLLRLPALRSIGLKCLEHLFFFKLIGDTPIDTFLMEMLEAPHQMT

B1: UASG x4 (dsDNA)
DNA 1: CGACGGAGTACTGTCCTCCGAGCT
DNA 2: AGCTCGGAGGACAGTACTCCGTCG
Consider B1, for which the activity came to 69 fold.
